Results from patent US7604993B2, “Combined regulation of neural cell production” (Stem Cell Therapeutics Inc., priority 2001, dated 2009).
Entries after “also recorded” stand apart in the source; their conditions may differ.

How the values were obtained:
neural stem cells [1] = assay: Number of EGF-responsive neural stem cells (primary neurospheres) after infusion into the lateral ventricle; type: in vivo, mice
Source text: Thus, we infused either CNTF or EPO into the lateral ventricles of adult mice for six days, after which we either removed the entire adult ependyma/subependyma to examine the total number of EGF-responsive NSCs or examined the in vivo production of neuronal precursors. […] Therefore, EGF-responsive NSCs turn over continuously in vivo, a sub-population of which spontaneously differentiates into restricted glial precursors, while another sub-population is directed to the neuronal restricted linage by EPO.
The protocols for neural stem cell culture are described in detail in U.S. Pat. No. 5,750,376 or Shingo et al., 2001. Briefly, embryonic neural stem cells were prepared from E14 medial and lateral ganglionic eminences. Adult neural stem cells were prepared from the subventricular zone of adult mice. The tissue was cultured in basal medium containing 20 ng/ml EGF, or other growth factors as indicated in each case, to form neurospheres. The composition of the basal medium is as follows: DMEM/F12 (1:1); glucose (0.6%); glutamine (2 mM); sodium bicarbonate (3 mM); HEPES (5 mM); insulin (25 μg/ml); transferrin (100 μg/ml); progesterone ([…]); putrescine (60 μM); and selenium chloride (30 nM). […]

neural stem cells [2] = assay: BrdU labelling of proliferating cells in infused animals; type: in vivo, mice; settings: BrdU also given to the infused animals
[3] = Forelimb inhibition test in focal ischemic injury (stroke) model; type: in vivo; settings: rats with focal ischemic injury; first infusion days 1-7, second infusion days 8-14
Source text: Adult male Long-Evans rats (250-350 g) were obtained from Charles River Breeding Farms and were adapted to the colony for two weeks prior to any treatment. A week before surgery the rats were given a baseline testing on the behavioral tests.
The animals for the stroke study received unilateral devascularization of the sensorimotor cortex. Using Isoflurane anesthesia, the skin was incised and retracted and the overlying fascia were removed from the skull. A skull opening was made at the following coordinates, taking care not to damage the dura: AP +4.0 to −2.0; L 1.5 to 4 (the parasagittal ridge; Kolb et al., 1997). The dura was cut and retracted from the skull opening. A cotton swab soaked in sterile saline was gently rubbed across the exposed pia and the vessels were removed. A hole was then drilled in the contralateral hemisphere to provide an opening for the cannulae attached to the osmotic minipump at AP −0.5; L 1.5. […]
Six days later the animals were assessed using the behavioral test. […]
In normal rats, swimming is accomplished by propulsion from the hind limbs. […] Inhibition of the forelimbs was assessed by filming animals while swimming. […]
The animals then received various test factors, and the effects of these factors on the forelimb inhibition test and brain anatomy were assessed. […]

[4] = test system: migrating neuronal progenitor cells; assay: Brain anatomical analysis (Cresyl Violet, Doublecortin) in focal ischemic injury (stroke) model; type: in vivo; settings: rats with focal ischemic injury, end of week 6
Source text: The animals for the stroke study received unilateral devascularization of the sensorimotor cortex. Using Isoflurane anesthesia, the skin was incised and retracted and the overlying fascia were removed from the skull. A skull opening was made at the following coordinates, taking care not to damage the dura: AP +4.0 to −2.0; L 1.5 to 4 (the parasagittal ridge; Kolb et al., 1997). The dura was cut and retracted from the skull opening. A cotton swab soaked in sterile saline was gently rubbed across the exposed pia and the vessels were removed. A hole was then drilled in the contralateral hemisphere to provide an opening for the cannulae attached to the osmotic minipump at AP −0.5; L 1.5. An osmotic minipump was placed under the skin between the shoulder blades and a tube connected under the skin to the cannulae, which was attached to the skull with fast-drying cement. Once hemostasis had been achieved the scalp was sutured closed with 5-O sterile suture. The animals were given a single injection of Banamine (an analgesic) and returned to their home cage. Sham animals received only anesthesia, the bone opening, and the skin was incised and sutured. […] The animals then received various test factors, and the effects of these factors on the forelimb inhibition test and brain anatomy were assessed. […]

[5] = test system: neural stem cells in the subventricular zone; assay: Subcutaneous administration, number of neural stem cells in the subventricular zone; type: in vivo

B1: CNTF: rat recombinant CNTF, ciliary neurotrophic factor (protein, UniProt P20294 1-200, looked up)
Ciliary neurotrophic factor: MAFAEQTPLTLHRRDLCSRSIWLARKIRSDLTALMESYVKHQGLNKNINLDSVDGVPVASTDRWSEMTEAERLQENLQAYRTFQGMLTKLLEDQRVHFTPTEGDFHQAIHTLMLQVSAFAYQLEELMVLLEQKIPENEADGMPATVGDGGLFEKKLWGLKVLQELSQWTVRSIHDLRVISSHQMGISALESHYGAKDKQM
Question: With B1 as the molecule, how does the “increase of the number of primary neurospheres that can be obtained from the brain” value (neural stem cells [1]; infusion into adult mice for six days) read?
Answer: Its value is “about 25%”.

Question: What about the “increase in the number of NSCs” value (neural stem cells [1]; infusion into lateral ventricles of adult mice for six days) of the same molecule?
Answer: The value was 20-25%.

Question: And the “number of BrdU positive cells” value (neural stem cells [2])?
Answer: Its value is “did not increase”.

B2: prolactin: prolactin, first infusion days 1-7, then CSF (Group 3) (protein, UniProt P01236 29-227, looked up)
Prolactin: LPICPGGAARCQVTLRDLFDRAVVLSHYIHNLSSEMFSEFDKRYTHGRGFITKAINSCHTSSLATPEDKEQAQQMNQKDFLSLIVSILRSWNEPLYHLVTEVRGMQEAPEAILSKAVEIEEQTKRLLEGMELIVSQVHPETKENEIYPVWSGLPSLQMADEESRLSAYYNLLHCLRRDSHKIDNYLKLLKCRIIHNNNC
Question: For B2, which “forepaw inhibition / motor function in the forelimb inhibition test” value [3] is on record?
Answer: Its value is “improvement of motor functions; also recorded: acted to correct abnormal positioning of the forelimb during swimming; also recorded: recovery from a representative symptom of stroke; also recorded: improved the motor function”.

Question: What about the “doublecortin staining / doublecortin positive cells in the brain” value [4] of the same molecule?
Answer: The value was “high degree of doublecortin staining”.

Question: And the “delivery by subcutaneous administration to modulate the number of neural stem cells in the subventricular zone” value [5]?
Answer: The value was “effectively delivered”.
